Test results reported in the supplement of paper PMC9170038.

Tested on: MS2 coat protein
Assay: apparent KD of MS2 coat protein; designed switch direction (-1 OFF switch, 1 ON switch): -1; higher = weaker reporter binding
Method in brief: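 For each design, the apparent KD is the median over clusters of curves fitted to normalised cluster fluorescence. Clusters held RNA switches with common flanks, transcribed on Illumina chips by stalled E. coli RNA polymerase. These were titrated with SNAP-549-labelled MS2 coat protein, doubling from 0.7 or 1.5 nM to 3 µM, without input, with 200 uM small-molecule ligand, or with an oligonucleotide input.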

[1] = Eterna round: R95, input ligand: FMN 200 uM
[2] = Eterna round: R95, input ligand: microRNA oligo, concentration not stated
[3] = Eterna round: R95, input ligand: none
[4] = input ligand: microRNA oligo, concentration not stated

GAUUAUGCGAGCUUUAGGGACAUGAGGAUCACCCAUGUUCGUCUUAUUGGUCUGGAUACACUGACAUACCUAAAUCU [JMF 60] (puzzle: Sensor v3, turn-off variant 1)
apparent KD of MS2 coat protein [1]: 16.8 nM | apparent KD of MS2 coat protein [2]: 22.6 nM | apparent KD of MS2 coat protein [3]: 18.4 nM

GAUUAUGCGAGCUUUAGGGACAUGAGGAUCACCCAUGUUCGUCUUAUUGGUCUGGAUGCACUAACAUACCUAAAUCU [JMF 28] (puzzle: Sensor v3, turn-off variant 1)
apparent KD of MS2 coat protein [1]: 22.4 nM | apparent KD of MS2 coat protein [2]: 30.4 nM | apparent KD of MS2 coat protein [3]: 24 nM

GAUUAUGCGAGCUUUAGGGACAUGAGGAUCACCCAUGUUCGUCUUGUUGAUCUAGGUACGCUGACAUACCUAAAUCU [JMF 99] (puzzle: Sensor v3, turn-off variant 1)
apparent KD of MS2 coat protein [1]: 19.6 nM | apparent KD of MS2 coat protein [2]: 25.6 nM | apparent KD of MS2 coat protein [3]: 19.7 nM

GAUUGACAUGAGGAUCACCCAUGUGAGGAUAUCGGCCGGACCGUGUUGGCUUCCGUCGCGAGAAGGCGCAUAGG [Exclusion 1 V39] (puzzle: Exclusion 1)
apparent KD of MS2 coat protein [1]: 173 nM | apparent KD of MS2 coat protein [2]: 82.2 nM | apparent KD of MS2 coat protein [3]: 101 nM

GAUUGACAUGAGGAUCACCCAUGUGAGGAUAUCGGCUGGACCGUGUUGGCUUCCGUUUCGAGAAGGCGCAUAGG [Exclusion 1 V44] (puzzle: Exclusion 1)
apparent KD of MS2 coat protein [2]: 23.2 nM

GAUUGCUCGUCUUGAAAACACAUGAGGAUCACCCAUGUAACUAGGGAAACCACGAUUAUAUUCGCUUUUCAGUGUAA [Eternabot (L2) Solution 2] (Eterna round: R97, puzzle: Sensor, turn-off variant 1)
apparent KD of MS2 coat protein (input ligand: FMN 200 uM): 29.6 nM | apparent KD of MS2 coat protein (input ligand: none): 34.2 nM

GCAAGAAUAGGAUAUACAACAUGCCAGCUUCUUUACAACGCACAUGAGGAUCACCCAUGUAGAAGGGUUCUCUA [Exclusion-2-#13] (Eterna round: R97, puzzle: Exclusion 2)
apparent KD of MS2 coat protein (input ligand: FMN 200 uM): 209 nM | apparent KD of MS2 coat protein (input ligand: none): 261 nM

GCAAGAUUCUGAGGAUAUGCGCUACAUCCCACAGCAGAAGGCGGAAAUUGACUGACAUGAGGAUCACCCAUGUGAUCCGCUUUC [Eternabot solution 33] (Eterna round: R96, puzzle: Exclusion NG 1)
apparent KD of MS2 coat protein (input ligand: FMN 200 uM): 32.7 nM | apparent KD of MS2 coat protein [4]: 21.2 nM | apparent KD of MS2 coat protein (input ligand: none): 17.7 nM

GCAAGCUUUUGCUCGUCUUACAUGAGGAUCACCCAUGUUGGGUCCGGUCGCCGCGGCCGGGCCGGCCGGGCGCCGGG [-38, -65.5 kcal, A 10%] (Eterna round: R97, puzzle: Sensor, turn-off variant 1)
apparent KD of MS2 coat protein (input ligand: FMN 200 uM): 31.2 nM | apparent KD of MS2 coat protein (input ligand: none): 33.3 nM

GCACGGAGUGUAGGAUAUCUGUGCGAUUAGCUCAGAGAAGGACACAUGAGGAUCACCCAUGUGUUCCAGCGAAAGCUUCCGUGC [Eli exng1 - 047] (Eterna round: R96, puzzle: Exclusion NG 1)
apparent KD of MS2 coat protein (input ligand: FMN 200 uM): 8.15 nM | apparent KD of MS2 coat protein [4]: 9.32 nM | apparent KD of MS2 coat protein (input ligand: none): 10.6 nM

GCACUGACAGGAUAUACAUGAGGAUCACCCAUGUGACCCUUAUAGUACUCGCGUACUAGUAGAAGGGUCUGUGC [Omei Ex3 Model Bachelor's Dilema v33] (Eterna round: R97, puzzle: Exclusion 3)
apparent KD of MS2 coat protein (input ligand: FMN 200 uM): 324 nM | apparent KD of MS2 coat protein (input ligand: none): 59.4 nM

GCACUGGCAGGAUAUACAUGAGGAUCACCCAUGUGAUCCCUUAGGUACAAAAGUACUAGUAGAAGGGCCUGUGC [Omei Ex3 Model Bachelor's Dilema v48] (Eterna round: R97, puzzle: Exclusion 3)
apparent KD of MS2 coat protein (input ligand: FMN 200 uM): 294 nM | apparent KD of MS2 coat protein (input ligand: none): 968 nM

GCAGCAUAGUAAACAUACUGUUACAUGAGGAUCACCCAUGUACAGGAUAUGGUCUGGAUUACAGGCCAGAAGGGUACAAGCUGC [Eli exng3 - 023] (Eterna round: R96, puzzle: Exclusion NG 3)
apparent KD of MS2 coat protein (input ligand: FMN 200 uM): 8.36 nM | apparent KD of MS2 coat protein [4]: 13 nM | apparent KD of MS2 coat protein (input ligand: none): 12.8 nM

GCAGCAUAGUUAACAUACUGUUACAUGAGGAUCACCCAUGUACAGGAUAUGGUCUGGAUUACAGGCCAGAAGGGUACAAGCUGC [Eli exng3 - 020] (Eterna round: R96, puzzle: Exclusion NG 3)
apparent KD of MS2 coat protein (input ligand: FMN 200 uM): 10.7 nM | apparent KD of MS2 coat protein [4]: 7.8 nM | apparent KD of MS2 coat protein (input ligand: none): 12.6 nM

GCAGGAUAAGUCAGGAUAUACCUAUGGAUACAUAGGUAGAAGGGACAUGAGGAUCACCCAUGUGACUCGCCUGC [Fiskers BMX 4 - 73] (puzzle: Brourd's mod of Exclusion 4)
apparent KD of MS2 coat protein [2]: 27.6 nM

GCAGGAUAAGUCAGGAUAUACCUAUGGAUACAUAGGUAGAAGGGACAUGAGGAUCACCCAUGUUACUCGCCUGC [Fiskers BMX 4 - 74] (puzzle: Brourd's mod of Exclusion 4)
apparent KD of MS2 coat protein [2]: 13.6 nM

GCAGGCGUCUAGGCUCGUCUUAUUUUGAGAGGAUUGAUAACAUGAGGAUCACCCAUGUUUGUGGGAGAGUUGCAGUG [JR_SV3TOV2_Sub015] (puzzle: Sensor v3, turn-off variant 2)
apparent KD of MS2 coat protein [1]: 121 nM | apparent KD of MS2 coat protein [2]: 241 nM | apparent KD of MS2 coat protein [3]: 143 nM

GCAUCACAUGUCAGGAUAUGCUGUACCUUGGUACAGCAGAAGGGACAUGAGGAUCACCCAUGUGCCUAUGAUGC [JL-BMX4-4.11] (Eterna round: R97, puzzle: Brourd's mod of Exclusion 4)
apparent KD of MS2 coat protein (input ligand: FMN 200 uM): 555 nM | apparent KD of MS2 coat protein (input ligand: none): 59.3 nM

GCAUCCAAUGUGAGGAUAUACCUCUGGAUACAGAGGUAGAAGGCACAUGAGGAUCACCCAUGUUACUAGGAUGC [Fiskers BMX 4 - 36] (puzzle: Brourd's mod of Exclusion 4)
apparent KD of MS2 coat protein [2]: 19.3 nM

GCAUUGAGUGUGAGGAUAUGCUGGUCCUAAGAUCAGCAGAAGGCACAUGAGGAUCACCCAUGUGAAAACAAUGC [Mat - Exclusion 4 - JL Mod - D65] (puzzle: Brourd's mod of Exclusion 4)
apparent KD of MS2 coat protein [1]: 102 nM | apparent KD of MS2 coat protein [2]: 15.2 nM | apparent KD of MS2 coat protein [3]: 17.4 nM

GCCAAUGACUGAGGAUAUGCUUAUAGACAUGAGGAUCACCCAUGUAAAUGGGACAUGUCAAACCAGCAGAAGGCAGGACCUGGC [Arused] (Eterna round: R96, puzzle: Exclusion NG 2)
apparent KD of MS2 coat protein (input ligand: FMN 200 uM): 69 nM | apparent KD of MS2 coat protein [4]: 585 nM | apparent KD of MS2 coat protein (input ligand: none): 514 nM

GCCAGAGCAGGAUAUUCAAUAUGUCACAUGAGGAUCACCCAUGUCCAGCGAAAGCUGGAGGGAGAAGGGCUCUGGC [Fiskers Ex 5 - 18] (puzzle: Exclusion 5)
apparent KD of MS2 coat protein [1]: 23.7 nM | apparent KD of MS2 coat protein [2]: 89.3 nM | apparent KD of MS2 coat protein [3]: 119 nM

GCCAGCGUAUAGGAUAUGGCCGGCUUUUGAGUACCAGAAGGAUACACAUGAGGAUCACCCAUGUGGCAUUCGUC [Eternabot (L2) Solution 71] (Eterna round: R97, puzzle: Exclusion 6)
apparent KD of MS2 coat protein (input ligand: FMN 200 uM): 20.5 nM | apparent KD of MS2 coat protein (input ligand: none): 14.7 nM

GCCAUGUCAGGAUAUGCUUCAAAGCACGUACAGAGCUUGAAGUAGAAGGGACAUGAGGAUCACCCAUGUGCCUA [Eternabot (L1) Solution 80] (Eterna round: R97, puzzle: Exclusion 4)
apparent KD of MS2 coat protein (input ligand: FMN 200 uM): 40.2 nM | apparent KD of MS2 coat protein (input ligand: none): 20 nM

GCCCUCACAGUGAGGAUAUCUGAGCAUCCCGCUAAGGAGAAGGCACAUGAGGAUCACCCAUGUAAUUGGUUUAA [BmEX4 A.22] (Eterna round: R97, puzzle: Brourd's mod of Exclusion 4)
apparent KD of MS2 coat protein (input ligand: FMN 200 uM): 124 nM | apparent KD of MS2 coat protein (input ligand: none): 39.8 nM

GCCGAAAAUGUGAGGAUAUACCUAUGGAUACAUAGGUAGAAGGCACAUGAGGAUCACCCAUGUGUUUCAACGGC [Eli bmx4 4.21] (Eterna round: R97, puzzle: Brourd's mod of Exclusion 4)
apparent KD of MS2 coat protein (input ligand: FMN 200 uM): 94.8 nM | apparent KD of MS2 coat protein (input ligand: none): 22.2 nM

GCCGAAAGUGUGAGGAUAUACCUAUGGAUACAUAGGUAGAAGGCACAUGAGGAUCACCCAUGUGGGAAAACGGC [Eli bmx4 4.30] (Eterna round: R97, puzzle: Brourd's mod of Exclusion 4)
apparent KD of MS2 coat protein (input ligand: FMN 200 uM): 1140 nM | apparent KD of MS2 coat protein (input ligand: none): 190 nM

GCCGAUUAAGUCAGGAUAUACCUAUGGAUACAUAGGUAGAAGGGACAUGAGGAUCACCCAUGUUCCUCACCGGC [Fiskers BMX 4 - 15] (puzzle: Brourd's mod of Exclusion 4)
apparent KD of MS2 coat protein [2]: 12 nM

GCCGCUGUAGGAUAUGCCAGGGUGGCAGCUUGAUGUGUGGCACAUGAGGAUCACCCAUGUAGAAGGACAGAAAG [Isvelera] (puzzle: Exclusion 2)
apparent KD of MS2 coat protein [2]: 17.1 nM

GCCGUAAGUGUGAGGAUAUACCUAUGGAAACAUAGGUAGAAGGCACAUGAGGAUCACCCAUGUCCUUAAUCGGC [Mat - Exclusion 4 - Eli Mod - D4] (Eterna round: R97, puzzle: Brourd's mod of Exclusion 4)
apparent KD of MS2 coat protein (input ligand: FMN 200 uM): 366 nM | apparent KD of MS2 coat protein (input ligand: none): 224 nM

GCCGUUAAGGUAGGAUAUGCUCGGUCUGUGCGUGCAGAAGGGCUGGUCGGCGACUUGAGGAUCACCCAAGUGGUCUUAUAGAAA [Mutated MS2 EX1.21] (Eterna round: R96, puzzle: Exclusion NG 1)
apparent KD of MS2 coat protein (input ligand: FMN 200 uM): 121 nM | apparent KD of MS2 coat protein [4]: 142 nM | apparent KD of MS2 coat protein (input ligand: none): 64.8 nM

GCCUUACAUGAGGAUCACCCAUGUCAGGAUAUCGUUCAAGAUCUGACCUUAGAUCGAUCGAGAAGGGACUGGAU [Eternabot (L1) Solution 39] (Eterna round: R97, puzzle: Exclusion 1)
apparent KD of MS2 coat protein (input ligand: FMN 200 uM): 27.4 nM | apparent KD of MS2 coat protein (input ligand: none): 17.2 nM

GCCUUAUCCGUCAGGAUAUACAUUUUUUUUUUUUUGUAGAAGGGACAUGAGGAUCACCCAUGUACAUUACAUUG [alecazam17] (Eterna round: R97, puzzle: Brourd's mod of Exclusion 4)
apparent KD of MS2 coat protein (input ligand: FMN 200 uM): 41 nM | apparent KD of MS2 coat protein (input ligand: none): 22.9 nM

GCGAAAGCAAACAGGUGAAACAUGAGGAUCACCCAUGUCCUCAUUUGCUCGUCUUAUAAGCUAUGCGAAAGCAUAGC [Sensor 3, v1 - 8] (puzzle: Sensor v3, turn-off variant 1)
apparent KD of MS2 coat protein [1]: 100 nM | apparent KD of MS2 coat protein [2]: 935 nM | apparent KD of MS2 coat protein [3]: 109 nM
